Drawing on paper PMC3755756, this text covers Kd relative to the V domains of Alix and HD-PTP (~50 μM) for one substance.

In this experiment the target is ubiquitin (15N-Ub) (UniProt P0CG48). The experiment in a line: NMR titration.

“V domain of S. castelli Bro1 (domain or fragment)” yielded a Kd relative to the V domains of Alix and HD-PTP (~50 μM) of 5 fold.
